In PMC2685691 (The Journal of Biological Chemistry, 2009):
Where “and” joins values, the source holds several entries; their conditions need not be identical. Identical values can stand only once.

Assays:
Assay in all cases: NMR titration
talin F3 Y377A (mouse) = talin F3 Y377A (mouse) (UniProt P26039)
talin F3 K324D (mouse) = talin F3 K324D (mouse) (UniProt P26039)
β3-integrin tail = β3-integrin tail (UniProt P05106)
[1] = molecular target: U-15N-labeled talin F3 (309–405) (mouse, UniProt P26039 309-405)
talin 1655–1822 Y1777A = talin 1655–1822 Y1777A (mouse, UniProt P26039 1655-1822, Y1777A)
talin 1655–1822 T1767A = talin 1655–1822 T1767A (mouse, UniProt P26039 1655-1822, T1767A)
[2] = molecular target: talin 1655–1822 rod domain (mouse, UniProt P26039 1655-1822)
talin 1655–1822 S1684D = talin 1655–1822 S1684D (mouse, UniProt P26039 1655-1822, S1684D)
talin 1655–1822 Q1764A = talin 1655–1822 Q1764A (mouse, UniProt P26039 1655-1822, Q1764A)
Sequence of talin 1655–1822 Q1764A (P26039 1655-1822 Q1764A): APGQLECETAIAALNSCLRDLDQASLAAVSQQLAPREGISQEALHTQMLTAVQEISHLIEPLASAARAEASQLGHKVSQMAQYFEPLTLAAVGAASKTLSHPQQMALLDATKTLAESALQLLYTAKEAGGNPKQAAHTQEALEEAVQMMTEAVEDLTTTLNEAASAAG

Sequence of talin 1655–1822 rod domain (mouse, UniProt P26039 1655-1822) (P26039 1655-1822): as the sequence (P26039 1655-1822 Q1764A) above, with A110Q counted along it
Sequence of U-15N-labeled talin F3 (309–405) (P26039 309-405): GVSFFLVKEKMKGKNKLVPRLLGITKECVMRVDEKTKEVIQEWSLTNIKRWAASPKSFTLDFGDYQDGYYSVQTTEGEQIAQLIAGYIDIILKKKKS
Sequence of talin 1655–1822 Y1777A (P26039 1655-1822 Y1777A): as the sequence (P26039 1655-1822 Q1764A) above, with A110Q, Y123A counted along it
Sequence of talin 1655–1822 S1684D (P26039 1655-1822 S1684D): as the sequence (P26039 1655-1822 Q1764A) above, with S30D, A110Q counted along it
Sequence of talin 1655–1822 T1767A (P26039 1655-1822 T1767A): as the sequence (P26039 1655-1822 Q1764A) above, with A110Q, T113A counted along it

Question: Which fold decrease in binding affinity against wild-type F3 (talin F3 Y377A (mouse)) does the source give for “talin 1655–1822 rod domain (from UniProt P26039 1655-1822) (domain or fragment)” here?
Answer: 5 fold

Question: What about the fold decrease in affinity against wild-type F3 (talin F3 K324D (mouse)) of the same molecule?
Answer: 23 fold

Question: How did the Kd (β3-integrin tail) turn out when “M319A F3 mutant (from UniProt P26039 309-405) (domain or fragment)” was run?
Answer: 225 µM

Question: Which Kd [1] does the source give for KLLITIHDRKEFAKFEEERARAKWDTANNPLYKEATSTFTNITYRGT (domain or fragment) [β3-integrin tail] here?
Answer: 273 ± 6 µM

B1: talin F3 FERM subdomain (residues 309–400) (domain or fragment)
chain: GVSFFLVKEKMKGKNKLVPRLLGITKECVMRVDEKTKEVIQEWSLTNIKRWAASPKSFTLDFGDYQDGYYSVQTTEGEQIAQLIAGYIDIIL
Question: What does the source list for B1?
Answer: binding result (talin 1655–1822 Y1777A): binds; binding result (talin 1655–1822 T1767A): binds; Kd [2]: 11 µM and 9 µM; binding result (talin 1655–1822 S1684D): binds; binding result (talin 1655–1822 Q1764A): binds
